Residue numbers refer to the chain shown, from its start. Names and notes keep the numbering of the source.
B1: PfOngB (Pseudoalteromonas maricaloris) (protein)
chain: MLSSSPYVDTLIQGATVYFEPDSEAQVVDVAISKDKIVALGNCSHLQALQCIDATGLVLAPGFIDVHTHDDLEVLRGPYMLSKVSQGVTTVIAGNCGISAVPYCADQAPLDPINLLGEQSEFAYRELQDYQHAFSKAAPSVNLATLVGHTTLRAQVMTDLSQAANAQELEQMKTLLHQAMAQGAIGFSTGLAYYNAKGASQAEVNALAEVVTPFDGIYTTHLRTEFQGVIRAMDEAFATAEHAKLPLVISHIKCAGRENWGRAPEVLAHFELHRKTHPVSCDCYPYAASSSTLDLNQVTEETDIFITWSESHPELAQQSLANIATQWQVSQRDAAKRLQPAGAVYHCMLEDDVQRFVSYEHSMVGSDGLPCDPHPHPRLWGTFPRVLGHYCREQQSLPLALAIHKMTALPAARFKLRQRGNIQIGYFADLVLFDPNRVLDQASYSNPKQLASGIVKVWVNGKLSYVEGANADTIVDFGRAGRFLTRQN
notes: recombinant, cloned like PpOngB (pET-22b, His tag)
B2: PpOngB (Pseudoalteromonas prydzensis) (protein)
chain: MQYDISQPVDTIIYQAKVFDGLGNAPVHMDVAIKGQQIVALGELSAYQATEEVNADGLCLAPGFIDVHTHDDLEVLRNPEMAAKISQGVTTVITGNCGISAAPAELANDAPDPMNLLGEKAEFKFAQLRDYIDAYKVQKANVNVAALVGHTTLRNNVMADLLRPATAAEITLMQQQLDLALSQGALGLSTGLAYKNANQAPSSEVHAFGEVLKKHDALYTTHLRTEFDAVLDAMDEAFAMEQAFDIKVIISHLKCAGKNNWGRAPELLAKFSEQGEHSKCSCDAYPYAASSSTLDLNQVTDDFDIFITWSDSHPEMAEQLLADIAKQWGISLLDAAKQLQPAGAVYHGLNEDDVKTILAFDKTMIGSDGLPCDPHPHPRLWGSFPRVLGHYSREQGIFSLATAIHKMTGLSAANYRLANRGVIKVGHFADLVLFDADEIIDNATFVESALPASGIHQVWTNGQTTFKDKRVLPAYSGQFLTSLGASKHD
notes: pET-22b, His tag; E. coli BL21(DE3); residues 7-482 seen in crystal; one Zn
B3: PpOngB (Pseudoalteromonas prydzensis; S292T) (protein)
chain: B2 chain with S292T
notes: as for B2
B4: PpOngB (Pseudoalteromonas prydzensis; Q298N) (protein)
chain: B2 chain with Q298N
notes: as for B2
B5: PpOngB (Pseudoalteromonas prydzensis; Q298A) (protein)
chain: B2 chain with Q298A
notes: as for B2

How the values were obtained:
[1] = target: T1, PpOngB (Pseudoalteromonas prydzensis, UniProt Z9WEX2YQL1, D368A); assay: X-ray crystal structure, […] Å; type: binding; settings: inactive mutant cocrystallised; active site, open-chain aldonic acid coordinating zinc
T1 construct: pET-22b, His tag; E. coli BL21(DE3); residues 7-482 seen in crystal; one Zn
T1 sequence (Z9WEX2YQL1 1-489 D368A): B2 chain with D368A

[2] = target: T2, BbDam (Bordetella bronchiseptica, UniProt A0A0H3LXD5); assay: deacetylase activity assay; type: biochemical; settings: 10 mM substrate, 50 mM Hepes pH 8.0, 30 °C
T2 construct: gene BB3285
T2 sequence (A0A0H3LXD5 entry or part of it): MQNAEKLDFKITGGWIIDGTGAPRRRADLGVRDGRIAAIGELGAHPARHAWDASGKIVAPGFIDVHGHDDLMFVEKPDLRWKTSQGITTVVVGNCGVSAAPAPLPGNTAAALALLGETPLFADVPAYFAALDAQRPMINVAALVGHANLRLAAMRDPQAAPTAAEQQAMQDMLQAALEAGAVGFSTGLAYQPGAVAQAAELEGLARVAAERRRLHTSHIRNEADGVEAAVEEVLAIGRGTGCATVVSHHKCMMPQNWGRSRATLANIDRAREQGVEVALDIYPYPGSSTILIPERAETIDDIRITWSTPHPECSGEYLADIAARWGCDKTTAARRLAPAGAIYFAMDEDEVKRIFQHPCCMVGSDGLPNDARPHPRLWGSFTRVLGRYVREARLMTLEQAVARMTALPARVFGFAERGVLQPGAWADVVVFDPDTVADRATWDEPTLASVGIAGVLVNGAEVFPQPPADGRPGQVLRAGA

[3] = test system: CC(=O)N[C@@H](C(=O)O)[C@@H](O)[C@H](O)[C@H](O)CO; assay: purified protein; settings: 10 mM Bis-Tris pH 7.5, 30 °C, 2-120 mM substrate, Zn enzyme
Description: ninhydrin assay of primary amine, Michaelis-Menten fit on PaOngB

[4] = target: T3, AfDam (Alcaligenes faecalis, UniProt Q9AGH8); assay: deacetylase activity assay; type: biochemical; settings: 10 mM substrate, 10 mM Bis-Tris pH 7.0, 40 °C
T3 sequence (Q9AGH8 1-484): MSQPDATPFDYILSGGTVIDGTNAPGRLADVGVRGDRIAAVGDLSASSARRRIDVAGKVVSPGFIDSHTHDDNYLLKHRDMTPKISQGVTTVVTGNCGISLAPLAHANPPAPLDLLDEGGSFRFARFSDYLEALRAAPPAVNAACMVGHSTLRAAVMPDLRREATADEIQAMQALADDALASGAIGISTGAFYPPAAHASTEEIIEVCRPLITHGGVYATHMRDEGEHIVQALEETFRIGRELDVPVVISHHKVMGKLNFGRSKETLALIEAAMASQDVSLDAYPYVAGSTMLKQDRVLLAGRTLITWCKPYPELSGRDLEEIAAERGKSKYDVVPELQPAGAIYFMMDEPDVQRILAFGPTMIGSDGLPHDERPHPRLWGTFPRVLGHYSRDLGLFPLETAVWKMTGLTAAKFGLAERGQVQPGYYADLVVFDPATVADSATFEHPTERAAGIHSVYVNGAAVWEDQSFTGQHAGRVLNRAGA

[5] = substrate: CC(=O)N[C@@H](C(=O)O)[C@@H](O)[C@H](O)[C@H](O)CO; assay: ninhydrin assay of primary amine, Michaelis-Menten fit; type: biochemical, Pseudoalteromonas maricaloris; settings: 10 mM Bis-Tris pH 7.5, 30 °C, 2-120 mM substrate, Zn enzyme
Description: ninhydrin assay of primary amine, Michaelis-Menten fit on PfOngB

[6] = substrate: CC(=O)N[C@@H](C(=O)O)[C@@H](O)[C@H](O)[C@H](O)CO; assay: as above; type: biochemical, Pseudoalteromonas prydzensis; settings: 10 mM Bis-Tris pH 7.5, 30 °C, 2-120 mM substrate, Zn enzyme
Description: ninhydrin assay of primary amine, Michaelis-Menten fit on PpOngB

Row | Molecule | Km [6] | Vmax [6] | kcat [6] | further results
1 | CC(=O)N[C@@H](C(=O)O)[C@@H](O)[C@H](O)[C@H](O)CO [GlcNAc1A, 2-(acetylamino)-2-deoxy-D-gluconic acid] | – | – | – | X-ray crystal structure, 2.29 Å [1]: crystal structure of PpOngB in complex with GlcNAc1A (the PpOngB-GlcNAc1A complex)
2 | CC(=O)N[C@H](CCC(=O)O)C(=O)O [N-acetyl-D-glutamate] | – | – | – | deacetylase activity assay [2]: enzymatic activities of BbDam and its mutants
3 | PaOngB (Pseudoalteromonas arabiensis) | – | – | – | Km [3]: 9.1 ± 0.8 mM; Vmax [3]: 6.3 µmol/min/mg; kcat [3]: 5.5 ± 0.3 s⁻¹; kcat/Km [3]: 600 M⁻¹ s⁻¹
4 | CSCC[C@@H](NC(C)=O)C(=O)O [N-acetyl-D-methionine] | – | – | – | deacetylase activity assay [4]: enzymatic activities of AfDam and its mutants
5 | B1 | – | – | – | Km [5]: 17.2 ± 1.0 mM; Vmax [5]: 13.4 µmol/min/mg; kcat [5]: 11.9 ± 0.7 s⁻¹; kcat/Km [5]: 700 M⁻¹ s⁻¹
6 | B2 | 9.8 ± 0.8 mM | 17.4 µmol/min/mg | 15.4 ± 1.3 s⁻¹ | kcat/Km [6]: 1600 M⁻¹ s⁻¹
7 | B3 | 54.2 ± 1.8 mM | 1.3 µmol/min/mg | 1.1 ± 0.1 s⁻¹ | –
8 | B4 | 53.4 ± 2.5 mM | 9.4 µmol/min/mg | 8.3 ± 0.3 s⁻¹ | –
9 | B5 | 59.7 ± 5.0 mM | 7.7 µmol/min/mg | 6.8 ± 0.6 s⁻¹ | –

From article PMC12017989, “Carbohydrate deacetylase, a key enzyme in oxidative chitin degradation, is evolutionarily linked to amino acid deacetylase [drawing 1]” (The Journal of Biological Chemistry, 2025)
